Measurements reported in US20120065254.

Experiments:
[1] = biological target: human complement C5 in serum (Homo sapiens) (UniProt P01031+P01031); assay: cell_activity; conditions: 2'-F pyrimidines and 2'-OMe purines as printed, CGCU unmodified; complement-dependent sheep erythrocyte hemolysis
[2] = biological target: T1, human C5a (L-form) (Homo sapiens) (UniProt P01031); assay: SPR; conditions: L-RNA [all (L-RNA)]; 37 C, Mg, Ca
T1 sequence: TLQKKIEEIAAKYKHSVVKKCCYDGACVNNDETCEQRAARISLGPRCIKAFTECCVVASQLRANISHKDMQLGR

Sequence of human complement C5 in serum (Homo sapiens) (P01031 19-673 T389I, one chain of several): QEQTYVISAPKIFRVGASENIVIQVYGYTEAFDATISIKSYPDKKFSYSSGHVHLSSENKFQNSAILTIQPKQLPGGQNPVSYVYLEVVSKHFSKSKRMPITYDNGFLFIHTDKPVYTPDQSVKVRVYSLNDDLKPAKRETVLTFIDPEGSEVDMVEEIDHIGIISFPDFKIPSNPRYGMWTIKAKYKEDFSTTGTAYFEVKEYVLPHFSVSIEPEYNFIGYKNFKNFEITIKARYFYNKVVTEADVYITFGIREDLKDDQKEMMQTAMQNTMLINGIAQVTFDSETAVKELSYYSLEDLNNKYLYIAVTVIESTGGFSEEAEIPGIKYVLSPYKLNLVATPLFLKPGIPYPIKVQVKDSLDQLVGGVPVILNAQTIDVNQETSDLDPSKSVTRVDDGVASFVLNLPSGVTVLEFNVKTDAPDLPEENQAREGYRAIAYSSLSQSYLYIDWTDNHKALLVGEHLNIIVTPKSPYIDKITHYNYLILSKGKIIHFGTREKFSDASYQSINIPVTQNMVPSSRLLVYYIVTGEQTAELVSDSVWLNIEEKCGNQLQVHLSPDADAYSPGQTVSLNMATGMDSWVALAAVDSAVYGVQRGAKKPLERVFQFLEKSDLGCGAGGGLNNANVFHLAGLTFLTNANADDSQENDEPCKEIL

Substance | IC50 [1] | Kd [2]
C5C6 aptamer | 1 µM | –
UGCUGGACAGGACCAAGGUAAGGGCGGACCGAAAAACCUAGCAGCA [182-A5-002] | – | 0.0003 µM
